# Patent publication US20250154287A1 (Pfizer, published 2025)
# Substitutions are numbered along the chain they refer to.
# T1: membrane IgD on human IgD^+ (IgA^-) primary B cells (human, UniProt P01880 1-430)
# T1 construct: whole, on cells; Negative control cell population without membrane IgA; also called CD19^+, IgD^+ B cell populations; IgD cells
# T1 sequence (heavy, looked up): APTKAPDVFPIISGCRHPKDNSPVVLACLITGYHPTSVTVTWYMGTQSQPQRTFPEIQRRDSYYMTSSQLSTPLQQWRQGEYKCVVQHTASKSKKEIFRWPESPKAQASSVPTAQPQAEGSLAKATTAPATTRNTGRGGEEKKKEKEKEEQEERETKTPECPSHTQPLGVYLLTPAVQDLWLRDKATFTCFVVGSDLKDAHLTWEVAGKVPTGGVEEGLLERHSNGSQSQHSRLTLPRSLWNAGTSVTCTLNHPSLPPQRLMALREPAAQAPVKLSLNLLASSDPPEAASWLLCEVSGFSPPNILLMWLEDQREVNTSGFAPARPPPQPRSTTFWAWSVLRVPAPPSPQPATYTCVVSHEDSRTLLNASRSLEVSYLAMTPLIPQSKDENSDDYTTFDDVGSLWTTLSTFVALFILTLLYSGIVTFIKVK
# T2: biotinylated human MIGIS-α peptide (human, biotinylated)
# T2 peptide: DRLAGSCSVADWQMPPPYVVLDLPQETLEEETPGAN
# B1: GBT-IgA-0661 (T18-CD3 bispecific EFN EE/RR huIgG1) (bispecific antibody)
# heavy 1: not shown
# light 1: not shown
# heavy 2: EVQLVESGGGLVQPGGSLRLSCAASGFTFSDYYMTWVRQAPGKGLEWVAFIRNQARGYTSDHNPSVKGRFTISRDNAKNSLYLQMNSLRAEDTAVYYCARDRPSYYVLDYWGQGTTVTVSSASTKGPSVFPLAPSSKSTSGGTAALGCLVKDYFPEPVTVSWNSGALTSGVHTFPAVLQSSGLYSLSSVVTVPSSSLGTQTYICNVNHKPSNTKVDKKVEPKSCEKTHTCPPCPAPEAAGAPSVFLFPPKPKDTLMISRTPEVTCVVVDVSHEDPEVKFNWYVDGVEVHNAKTKPREEQYNSTYRVVSVLTVLHQDWLNGKEYKCKVSNKALPAPIEKTISKAKGQPREPQVYTLPPSREEMTKNQVSLTCEVKGFYPSDIAVEWESNGQPENNYKTTPPVLDSDGSFFLYSKLTVDKSRWQQGNVFSCSVMHEALHNHYTQKSLSLSPGK
# light 2: DIQMTQSPSSLSASVGDRVTITCTSSQSLFNVRSQKNYLAWYQQKPGKAPKLLIYWASTRESGVPSRFSGSGSGTDFTLTISSLQPEDFATYYCKQSYDLFTFGGGTKVEIKRTVAAPSVFIFPPSDEQLKSGTASVVCLLNNFYPREAKVQWKVDNALQSGNSQESVTEQDSKDSTYSLSSTLTLSKADYEKHKVYACEVTHQGLSSPVTKSFNRGEC
# B2: GBT-IgA-0836 (T18-NKp46 bsAb) (bispecific antibody)
# heavy 1: not shown
# light 1: not shown
# heavy 2: not shown
# light 2: DIQMTQTTSSLSASLGDRVTISCRASQDISNYLNWYQQKPDGTVKLLIYYTSRLHSGVPSRFSGSGSGTDYSLTINNLEQEDIATYFCQQGNTRPWTFGGGTKLEIKRTVAAPSVFIFPPSDEQLKSGTASVVCLLNNFYPREAKVQWKVDNALQSGNSQESVTEQDSKDSTYSLSSTLTLSKADYEKHKVYACEVTHQGLSSPVTKSFNRGEC
# B3: GBT-IgA-1602, anti-MIGIS-α/CD3 bispecific antibody (bispecific antibody)
# heavy 1: not shown
# light 1: not shown
# heavy 2: B1 heavy 2
# light 2: B1 light 2
# B4: GBT-IgA-1164, anti-MIGIS-α/CD3 bispecific antibody (bispecific antibody)
# heavy 1: not shown
# light 1: not shown
# heavy 2: B1 heavy 2
# light 2: B1 light 2
# B5: GBT-IgA-0033 (H05) (antibody, V domains shown)
# VH: QVQLVESGGGVVQPGRSLRLSCAASGFTFSSYGMHWVRQAPGKGLEWVAVISYDGSNKYYADSVKGRFTISRDNSKNTLYLQMNSLRAEDTAVYYCAKLYGGNPEDAIDYWGRGTLVTVSS
# VL: not shown
# notes: Parental clone from naive library; huIgG1; also called HOS
# B6: GBT-IgA-0032 (T25) (antibody, V domains shown)
# VH: B5 VH with E105K, A107T, D109Y, Y110H
# VL: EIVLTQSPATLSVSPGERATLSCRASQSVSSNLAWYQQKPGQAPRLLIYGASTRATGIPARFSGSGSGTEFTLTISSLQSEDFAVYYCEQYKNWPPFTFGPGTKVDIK
# B7: GBT-IgA-0071 (T18 in one armed format) (antibody)
# heavy: not shown
# chain: EPKSSDKTHTCPPCPAPEAAGAPSVFLFPPKPKDTLMISRTPEVTCVVVDVSHEDPEVKFNWYVDGVEVHNAKTKPREEQYNSTYRVVSVLTVLHQDWLNGKEYKCKVSNKALPAPIEKTISKAKGQPREPQVYTLPPCREEMTKNQVSLSCAVKGFYPSDIAVEWESNGQPENNYKTTPPVLDSDGSFFLVSKLTVDKSRWQQGNVFSCSVMHEALHNRYTQKSLSLSPGK
# light: not shown
# notes: One-armed antibody; also called T18 OAA
# B8: GBT-IgA-0752 (GBT-IgA-0862 in one armed format) (antibody)
# heavy: not shown
# chain: B7 chain
# light: not shown
# notes: also called one armed format of GBT-IgA-0862 and of GBT-IgA-1164
# B9: GBT-IgA-0020 (15E7) (antibody, V domains shown)
# VH: EVQLLESGGGLVQPGGSLRLSCAASGFTFSSYAMSWVRQVPGKGLEWVSAITGSGSGTYYADPVKGRFTISRDNSKNTLYLQMNSLRAEDTAVYHCAKERSGSSSDYWGQGTLVTVSS
# VL: EIVLTQSPATLSLSPGERATLSCRASQTVSSYLAWYQQKPGQAPRLLIYEASNRATGIPPRFSGSGSGTDFTLTISSLEPEDFAVYYCQQRNNWPITFGQGTRLESKR
# How the values were obtained:
# [1] = target: T3, human membrane IgA (mIgA), endogenously expressed on primary B cells and DAKIKI cells (human, UniProt P01876 1-398); assay: cell-based or functional assay
# T3 sequence (P01876 whole entry): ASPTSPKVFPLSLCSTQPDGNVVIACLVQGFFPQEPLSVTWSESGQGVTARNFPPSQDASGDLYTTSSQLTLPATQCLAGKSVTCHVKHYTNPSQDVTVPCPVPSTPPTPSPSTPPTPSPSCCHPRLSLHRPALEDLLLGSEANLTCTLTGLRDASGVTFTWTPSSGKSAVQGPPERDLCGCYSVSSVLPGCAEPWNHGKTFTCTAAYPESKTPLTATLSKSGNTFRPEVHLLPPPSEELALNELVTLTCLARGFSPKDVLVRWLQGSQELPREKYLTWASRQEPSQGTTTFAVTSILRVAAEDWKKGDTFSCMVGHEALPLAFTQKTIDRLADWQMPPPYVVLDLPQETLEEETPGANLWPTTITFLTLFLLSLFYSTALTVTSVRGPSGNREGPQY
# [2] = target: T3, human membrane IgA (mIgA), endogenously …; assay: cell-based or functional assay; remark: listed apart in the source
# [3] = target: T3, human membrane IgA (mIgA), endogenously …; assay: cell-based or functional assay; remark: listed apart in the source
# [4] = target: T4, human membrane IgA overexpressed on Ramos cells (human); assay: flow cytometry on human IgA+ Ramos cells, mean of 3 experiments
# T4 construct: its MIGIS-α segment is the short form; also called IgA^+ Ramos; human IgA^+ RAMOS cells
# T4 sequence (heavy, as listed by the source): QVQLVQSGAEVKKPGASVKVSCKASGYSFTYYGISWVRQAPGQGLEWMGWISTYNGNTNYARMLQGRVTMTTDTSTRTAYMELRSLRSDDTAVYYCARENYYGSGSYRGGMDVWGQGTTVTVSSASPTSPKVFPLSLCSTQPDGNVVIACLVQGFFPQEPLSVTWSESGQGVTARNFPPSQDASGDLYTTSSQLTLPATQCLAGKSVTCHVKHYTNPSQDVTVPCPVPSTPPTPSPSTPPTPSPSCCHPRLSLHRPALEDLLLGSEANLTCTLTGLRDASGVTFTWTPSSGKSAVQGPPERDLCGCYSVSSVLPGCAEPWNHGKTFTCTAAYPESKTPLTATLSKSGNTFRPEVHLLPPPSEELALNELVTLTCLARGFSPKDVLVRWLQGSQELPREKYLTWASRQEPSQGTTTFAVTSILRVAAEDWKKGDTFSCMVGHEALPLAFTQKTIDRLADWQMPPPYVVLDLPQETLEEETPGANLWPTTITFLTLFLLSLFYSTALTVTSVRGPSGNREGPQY
# [5] = target: T3, human membrane IgA (mIgA), endogenously …; assay: cell-based or functional assay; remark: listed apart in the source
# [6] = target: T5, parental (IgA^-) Ramos cell line, which expresses only cell surface IgM (UniProt P01871 1-474); assay: flow cytometry on parental Ramos cells (IgM only), MFI minus background
# T5 construct: whole, on cells; Negative control cells without membrane IgA; also called mIgA negative Ramos cells; parental Ramos
# T5 sequence (P01871 whole entry): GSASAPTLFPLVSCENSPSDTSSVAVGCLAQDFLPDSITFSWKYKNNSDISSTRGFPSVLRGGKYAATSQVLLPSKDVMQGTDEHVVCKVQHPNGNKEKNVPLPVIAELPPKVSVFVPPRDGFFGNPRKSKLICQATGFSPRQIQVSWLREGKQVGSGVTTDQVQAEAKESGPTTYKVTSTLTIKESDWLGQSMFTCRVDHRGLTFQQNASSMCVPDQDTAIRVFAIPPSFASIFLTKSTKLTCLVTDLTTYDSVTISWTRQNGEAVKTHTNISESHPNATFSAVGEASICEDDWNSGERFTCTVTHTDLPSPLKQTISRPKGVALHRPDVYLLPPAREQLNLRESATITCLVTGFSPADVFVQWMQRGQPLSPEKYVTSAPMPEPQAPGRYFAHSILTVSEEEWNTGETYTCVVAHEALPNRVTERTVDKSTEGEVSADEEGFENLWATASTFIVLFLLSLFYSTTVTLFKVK
# [7] = target: cynomolgus monkey membrane IgA (cynomolgus monkey); assay: cell-based or functional assay
# [8] = target: T3, human membrane IgA (mIgA), endogenously …; assay: cell-based or functional assay; remark: listed apart in the source
# [9] = target: T1, membrane IgD on human IgD^+ (IgA^-) …; assay: flow cytometry on primary human B cells, gate IgD+ CD19+, MFI minus background
# [10] = target: T3, human membrane IgA (mIgA), endogenously …; assay: flow cytometry on primary human IgA+ memory B cells, mean of 3 donors
# [11] = target: T3, human membrane IgA (mIgA), endogenously …; assay: cell-based or functional assay; remark: listed apart in the source
# [12] = target: T4, human membrane IgA overexpressed on …; assay: flow cytometry, cell binding on IgA+ Ramos cells; fit table under the plot, unit from the y axis (gMFI minus secondary only)
# [13] = target: T4, human membrane IgA overexpressed on …; assay: flow cytometry, cell binding on IgA+ Ramos cells; fit table under the plot
# [14] = target: T5, parental (IgA^-) Ramos cell line, which …; assay: flow cytometry on parental Ramos cells
# [15] = target: T4, human membrane IgA overexpressed on …; assay: flow cytometry on IgA+ Ramos cells
# [16] = target: T4, human membrane IgA overexpressed on …; assay: flow cytometry, cell binding on IgA+ Ramos cells; fit table under the plot (the text prints 2.9 nM)
# [17] = target: T4, human membrane IgA overexpressed on …; assay: flow cytometry on IgA Ramos cells, OAA format; reference
# [18] = target: T2, biotinylated human MIGIS-α peptide; assay: SPR (Biacore T200, 37 C), biotinylated peptide captured, OAA as analyte, 1:1 fit
# [19] = target: T6, biotinylated cyno MIGIS-α peptide (cynomolgus monkey); assay: as above
# T6 construct: domain: MIGIS-α
# [20] = target: T2, biotinylated human MIGIS-α peptide; assay: SPR, OAA format
# [21] = target: T6, biotinylated cyno MIGIS-α peptide; assay: SPR, OAA format
binder,measurement,setting,value
B1,"EC50 (nM), cytotoxicity against IgA^+ CD20^+ B cells by flow cytometry",[1],2.68 nM
same,reduction of secreted IgA in PBMC supernatants at 300 nM (IgA ELISA),[2],52%
same,"EC50 (nM), reduction in secreted IgA in human PBMC supernatants",[3],21.2 nM
B2,"EC50 (nM), cytotoxicity against IgA^+ CD20^+ B cells by flow cytometry",[1],0.457 nM
same,reduction of secreted IgA in PBMC supernatants at 300 nM (IgA ELISA),[2],15%
same,"EC50 (nM), reduction in secreted IgA in human PBMC supernatants",[3],980 nM
B3,EC50,[4],40.5 nM
same,"EC50 (nM), IgA producing B cell kill",[5],1.5 nM
same,binding result,[6],no binding (tested: about 300 nM)
same,"Primary cell killing, potency EC50 (nM), cyno memory membrane IgA+",[7],0.19 nM
same,"Primary cell killing, potency EC50 (nM), cyno soluble plasma cells (IgA secreting)",[7],1.34 nM
same,"Primary cell killing, potency EC50 (nM), human memory B cells (membrane IgA+)",[8],0.73 nM
same,"Primary cell killing, potency EC50 (nM), human plasma cells (IgA secreting)",[8],1.67 nM
same,binding result,[9],no binding (tested: about 500 nM)
same,EC50,[10],49.8 nM
same,"EC50 (nM), IgA^+ memory B cell kill",[11],0.587 nM
B4,"EC50 (nM), IgA producing B cell kill",[5],0.916 nM
same,"EC50 (nM), IgA^+ memory B cell kill",[11],0.318 nM
B5,Top,[12],8440 gMFI
same,EC50,[13],91.4 nM
same,binding result,[14],no binding
B6,EC50,[15],2.9 nM
same,fold MFI compared to H05,[15],~4 fold
same,Top,[12],33700 gMFI
same,EC50,[16],2.99 nM
same,binding result,[14],no binding
B7,Fold Diff EC50 (OAA format in IgA Ramos by FLOW),[17],1 fold
same,Kd,[18],10.7 nM
same,koff,[18],0.0316 s⁻¹
same,kon,[18],2.96e+06 M⁻¹ s⁻¹
same,Kd,[19],11.9 nM
same,koff,[19],0.0132 s⁻¹
same,kon,[19],1.1e+06 M⁻¹ s⁻¹
same,fold improved affinity over GBT-IgA-0070 (H05 OAA),[20],~20 fold
same,fold improved binding over GBT-IgA-0070 (H05 OAA),[21],~5 fold
B8,Kd,[18],0.665 nM
same,koff,[18],0.0015 s⁻¹
same,kon,[18],2.29e+06 M⁻¹ s⁻¹
same,Kd,[19],0.795 nM
same,koff,[19],0.0017 s⁻¹
same,kon,[19],2.22e+06 M⁻¹ s⁻¹
same,fold affinity difference against GBT-IgA-1091,[20],~3 fold
same,fold affinity gain over T18,[20],~16 fold
same,fold affinity difference against GBT-IgA-1091,[21],~3 fold
same,fold affinity gain over T18,[21],~14 fold
B9,EC50,[15],64.5 nM
same,mean fluorescence intensity at the top saturating concentration tested,[15],23100 MFI
same,binding result,[14],no binding
